Assay results as given in publication PMC6321010, “Interaction of the GTPase Elongation Factor Like-1 with the Shwachman-Diamond Syndrome Protein and Its Missense Mutations” (International Journal of Molecular Sciences, 2018).

T1: human Elongation Factor Like-1 (EFL1) (human, UniProt Q7Z2Z2 1-1120)
T1 construct: human EFL1, GTPase, said to comprise 1120 residues; the expressed protein is fused to a TEV recognition site and a hexahistidine tag at the C-terminus; also called human EFL1; GTPase Elongation Factor Like-1; source: S. cerevisiae BCY123 (pRS426 backbone, GAL1/10 promoter), purified
T1 sequence: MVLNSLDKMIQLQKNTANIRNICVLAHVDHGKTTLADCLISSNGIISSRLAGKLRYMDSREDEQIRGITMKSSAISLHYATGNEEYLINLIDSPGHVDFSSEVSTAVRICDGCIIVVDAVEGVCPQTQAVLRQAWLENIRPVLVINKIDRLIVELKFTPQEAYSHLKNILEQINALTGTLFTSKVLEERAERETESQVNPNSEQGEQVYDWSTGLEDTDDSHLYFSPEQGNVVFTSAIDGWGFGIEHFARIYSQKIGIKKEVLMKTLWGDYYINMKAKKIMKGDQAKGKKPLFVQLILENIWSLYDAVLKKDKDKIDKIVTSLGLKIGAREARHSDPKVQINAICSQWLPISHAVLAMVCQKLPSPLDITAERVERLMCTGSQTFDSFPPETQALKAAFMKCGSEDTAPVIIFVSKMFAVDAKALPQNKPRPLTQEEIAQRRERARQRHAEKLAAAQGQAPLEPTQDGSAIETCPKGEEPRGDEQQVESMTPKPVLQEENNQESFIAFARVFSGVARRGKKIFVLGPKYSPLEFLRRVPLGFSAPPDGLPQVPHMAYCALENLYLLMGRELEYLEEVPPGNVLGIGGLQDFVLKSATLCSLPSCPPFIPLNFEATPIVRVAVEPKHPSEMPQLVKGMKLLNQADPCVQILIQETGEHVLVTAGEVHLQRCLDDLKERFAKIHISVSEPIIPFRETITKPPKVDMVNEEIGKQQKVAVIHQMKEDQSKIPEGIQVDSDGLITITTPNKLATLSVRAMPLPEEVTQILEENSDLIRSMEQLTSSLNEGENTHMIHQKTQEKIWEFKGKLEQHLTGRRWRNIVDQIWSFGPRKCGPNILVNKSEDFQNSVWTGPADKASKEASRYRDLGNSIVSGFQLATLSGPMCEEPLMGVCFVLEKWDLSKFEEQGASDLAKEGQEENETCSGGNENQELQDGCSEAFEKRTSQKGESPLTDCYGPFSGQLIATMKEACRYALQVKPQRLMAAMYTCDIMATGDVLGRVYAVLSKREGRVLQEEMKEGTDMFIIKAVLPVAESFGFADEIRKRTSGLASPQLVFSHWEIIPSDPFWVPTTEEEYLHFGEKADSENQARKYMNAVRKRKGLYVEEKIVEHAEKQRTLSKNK

T2: yeast SBDS orthologue Sdo1 (recombinant, for SAXS) (yeast (S. cerevisiae), UniProt Q07953 1-250)
T2 construct: Sdo1, the yeast orthologue of SBDS; called the full-length Sdo1; source: E. coli C41 (pRSET plasmid), purified by conventional chromatographic techniques
T2 sequence (looked up): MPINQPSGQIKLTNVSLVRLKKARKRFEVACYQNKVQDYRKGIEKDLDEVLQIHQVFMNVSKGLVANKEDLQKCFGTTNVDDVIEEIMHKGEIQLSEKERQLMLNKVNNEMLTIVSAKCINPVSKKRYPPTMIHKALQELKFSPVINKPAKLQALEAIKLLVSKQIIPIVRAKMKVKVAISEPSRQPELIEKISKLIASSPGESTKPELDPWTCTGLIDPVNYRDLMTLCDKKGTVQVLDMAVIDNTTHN


Key:
[1] = target: T1, human Elongation Factor Like-1 (EFL1); experiment: fluorescence polarisation; fluorescence anisotropy; 2 µL additions of 40-90 µM human EFL1 titrated into 300 µL of 0.1 µM Lumio Green-labelled human SBDS-FlAsH construct; 25 °C; 50 mM Tris-HCl pH 8, 300 mM NaCl, 5 mM β-mercaptoethanol; fitted to a single-site or a two different binding sites model; conditions: both partners purified
[2] = target: T2, yeast SBDS orthologue Sdo1 …; experiment: SAXS coupled to on-line size exclusion chromatography; yeast Sdo1, EFL1 and the complex EFL1•Sdo1 at 10, 6.5 and 8 mg/mL injected onto a Shodex KW-403 column; 50 mM Tris pH 8.0, 10% glycerol, 300 mM NaCl, 5 mM MgCl2; conditions: both partners purified

Kd [1] [µM] | stoichiometry N [2] | Binder
10.8 ± 0.9 |  | human SBDS domain 2 (residues 94-175) with C-terminal FlAsH tag, labelled with Lumio Green (domain or fragment, UniProt Q9Y3A5 94-175, looked up, Lumio Green dye (4',5'-bis(1,3,2-dithioarsolan-2-yl) fluorescein) on the C-terminal FlAsH tag, human SBDS, domain 2, residues 94-175; also called domain 2 of SBDS; source: E. coli C41 (pRSET plasmid), purified by conventional chromatographic techniques; not shown: FlAsH tag (Cys-Cys-Pro-Gly-Cys-Cys), C-terminal, kept) QVSDKERHTQLEQMFRDIATIVADKCVNPETKRPYTVILIERAMKDIHYSVKTNKSTKQQALEVIKQLKEKMKIERAHMRLR
4.6 ± 0.3 |  | human SBDS domains 2-3 (residues 94-250) with C-terminal FlAsH tag, labelled with Lumio Green (domain or fragment, UniProt Q9Y3A5 94-250, looked up, Lumio Green dye (4',5'-bis(1,3,2-dithioarsolan-2-yl) fluorescein) on the C-terminal FlAsH tag, human SBDS, domains 2-3, residues 94-250; also called construct consisting of domains 2-3 of SBDS; source: E. coli C41 (pRSET plasmid), purified by conventional chromatographic techniques; not shown: FlAsH tag (Cys-Cys-Pro-Gly-Cys-Cys), C-terminal, kept) QVSDKERHTQLEQMFRDIATIVADKCVNPETKRPYTVILIERAMKDIHYSVKTNKSTKQQALEVIKQLKEKMKIERAHMRLRFILPVNEGKKLKEKLKPLIKVIESEDYGQQLEIVCLIDPGCFREIDELIKKETKGKGSLEVLNLKDVEEGDEKFE
 | 1 | yeast EFL1 (recombinant, for SAXS) (enzyme, yeast (S. cerevisiae), UniProt P53893 1-1110, looked up, yeast EFL1 (GTPase); the model's rigid parts run over residues 1-1110; source: S. cerevisiae BCY123 (pRS426 backbone, GAL1/10 promoter), purified) MPRVESETYKRLQNDPSCIRNICIVAHVDHGKTSLSDSLLASNGIISQRLAGKIRFLDARPDEQLRGITMESSAISLYFRVLRKQEGSDEPLVSEHLVNLIDSPGHIDFSSEVSAASRLCDGAVVLVDVVEGVCSQTVTVLRQCWTEKLKPILVLNKIDRLITELQLTPQEAYIHLSKVIEQVNSVIGSFFANERQLDDLFWREQLEKNENAEYIEKDDSGIYFNPTDNNVIFASAIDGWGFNIGQLAKFYEQKLGAKRENLQKVLWGDFYMDPKTKKIINNKGLKGRSLKPLFTSLILENIWKIYQNIITSRDSEMVEKIAKTLNIKLLARDLRSKDDKQLLRTIMGQWLPVSTAVLLTVIEKLPSPLESQTDRLNTILVSESDTAAMDPRLLKAMKTCDKEGPVSAYVSKMLSIPREELPVESKRIASSDELMERSRKAREEALNAAKHAGMVENMAMMDLNDNSKNTSDLYKRAKDTVMTPEVGEQTKPKPSRNNDVFCVVSEPSSALDLEFEYEGEDDSDSQDNFGLDFVPTDIDPNDPLSSMFEYEEEDPLLESIKQISEDVNDEVDDIFDEKEECLVAFARIYSGTLRVGQEISVLGPKYDPKCPEEHIETAIITHLYLFMGKELVPLDVCPSGNIVGIRGLAGKVLKSGTLIEKGVQGVNLAGVNFHFTPIVRVAVEPANPVEMSKLVRGLKLLDQADPCVHTYVENTGEHILCTAGELHLERCLKDLTERFAGIEITHSEPAIPYRETFLSASDMNPPQNSQLGRGVHELLLSQYKITFRTFPLSGKVTDFLSQHQNSIKNILKTSTSSMDPVIESTGSSFLDKKSLLVAFEEVINQEEKSRELLSGFKVKLAGFGPSRVGCNILLSQDNLLGSLFEGTPAAFEYSDSIKNGFQLAVSEGPLANEPVQGMCVLVESVHKMSQDEIESIEDPRYQQHIVDLSGRLITSTRDAIHEAFLDWSPRIMWAIYSCDIQTSVDVLGKVYAVILQRHGKIISEEMKEGTPFFQIEAHVPVVEAFGLSEDIRKRTSGAAQPQLVFSGFECIDLDPFWVPTTEEELEELGDTADRENIARKHMNAIRRRKGLFIEEKVVENAEKQRTLKKN
15.2 ± 0.72 |  | human SBDS domain 1 (residues 1-94) with C-terminal FlAsH tag, labelled with Lumio Green (domain or fragment, UniProt Q9Y3A5 1-94, looked up, Lumio Green dye (4',5'-bis(1,3,2-dithioarsolan-2-yl) fluorescein) on the C-terminal FlAsH tag, human SBDS, domain 1, residues 1-94; also called domain 1 of SBDS; source: E. coli C41 (pRSET plasmid), purified by conventional chromatographic techniques; not shown: FlAsH tag (Cys-Cys-Pro-Gly-Cys-Cys), C-terminal, kept) MSIFTPTNQIRLTNVAVVRMKRAGKRFEIACYKNKVVGWRSGVEKDLDEVLQTHSVFVNVSKGQVAKKEDLISAFGTDDQTEICKQILTKGEVQ
